Our source for the Kd values is publication PMC2680354 (Molecular cell, 2008).

This assay has as its target Arp2/3 complex (UniProt P61158 1-418). Description: fluorescence polarisation. Background: In fluorescence polarisation assays a small probe gives low polarisation when free and higher when bound to something large.

B1: cortactin NtA (peptide)
chain: MWKASAGHAVSITQDDGGADDWETDPDFVNDVSEKEQRWGAKTVQGSGHQEHINIHKLRENVFQEHQTLKEKELETGPKASHGY
The molecule B1 displayed a Kd of 17 nM. This lies in the double-digit nanomolar range.

B2: chemically crosslinked WASP VCA (xlWASP VCA) (other)
chain: GGRGALLDQIRQGIQLNKTPGAPESSALQPPPQSSEGLVGALMHVMQKRSRAIHSSDEGEDQAGDEDEDDEWDD
modifications: chemically crosslinked to the second copy (crosslinker and site not shown)
B2 returned a Kd of 70 nM.

For orientation: Kd means a measure of binding affinity in units of concentration. A lower Kd goes with a tighter complex.
